Assay results taken from patent EP2674440A2.

Experiments:
[1] = target: fusion protein containing the A3B3 domain of CEA (UniProt P06731); assay: competitive ELISA against HRP-conjugated hMN-14 IgG (1 nM)
CEA = CEA (UniProt P06731); assay: SE-HPLC of 125I-TF2 mixed with a 20-fold molar excess of CEA

- fold avidity relative to TF1 [1]: 2 fold
- % of labeled TF2 shifted to a high molecular weight species (CEA): 95%
Substance: TF2 (bispecific antibody)
